In general, Kd refers to the concentration at which binding is half-saturated. What is called koff is the rate constant with which the complex falls apart. As a reminder, the kon is the second-order rate constant of association. One may read the EC50 as the concentration that produces a half-maximal response. By EC50 (read off the curve) is commonly meant the concentration that produces a half-maximal response. Broadly, the IC50 is the point on the concentration scale where inhibition reaches its midpoint.

Changes are numbered by the printed parent chain. Numbers in names are those of the source. Read-outs that look alike come from different tables or passages of the source.

Experiment [1] addresses T1, human EGFR, cell-expressed (human, UniProt P00533 25-1210).
T1 construct: whole, on cells; also called ErbB-1
Briefly: flow cytometry on HER14 cells (EGFR only), anti-Flag detection. On the technique in general: Flow cytometry measures light scatter and fluorescence of single cells or particles in a stream.

Experiment [2] concerns the target T2, recombinant human CEACAM5 (human, UniProt P06731 35-685).
T2 construct: also called hCEACAM-5; R&D Systems 4128-CM
T2 sequence (looked up): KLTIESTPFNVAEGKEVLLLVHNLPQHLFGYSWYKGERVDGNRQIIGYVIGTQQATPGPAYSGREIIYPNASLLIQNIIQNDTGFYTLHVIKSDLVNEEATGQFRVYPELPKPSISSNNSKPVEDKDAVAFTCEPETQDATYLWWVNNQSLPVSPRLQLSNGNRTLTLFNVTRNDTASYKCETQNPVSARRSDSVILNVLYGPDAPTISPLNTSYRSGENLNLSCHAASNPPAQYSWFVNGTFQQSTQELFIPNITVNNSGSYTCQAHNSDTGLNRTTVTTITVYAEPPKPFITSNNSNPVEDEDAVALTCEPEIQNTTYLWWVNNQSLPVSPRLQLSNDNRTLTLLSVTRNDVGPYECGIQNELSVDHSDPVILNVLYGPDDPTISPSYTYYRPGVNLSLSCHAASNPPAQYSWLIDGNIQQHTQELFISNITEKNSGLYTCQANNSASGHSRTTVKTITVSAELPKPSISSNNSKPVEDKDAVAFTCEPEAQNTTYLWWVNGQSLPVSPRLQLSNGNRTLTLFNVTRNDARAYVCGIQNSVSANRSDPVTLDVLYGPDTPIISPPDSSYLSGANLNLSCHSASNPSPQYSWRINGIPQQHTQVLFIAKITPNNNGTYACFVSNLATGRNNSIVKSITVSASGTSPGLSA
Briefly: SPR Biacore T100, immobilised hCEACAM-5. (In general: SPR reads the build-up and loss of mass on a sensor chip optically.)

In experiment [3] the target is T3, human CEACAM5, cell-expressed (human, UniProt P06731 35-685).
T3 construct: whole, on cells
T3 sequence (looked up): T2 sequence (looked up)
Briefly: FACS, LoVo cells.

Experiment [4] has as its target T2, recombinant human CEACAM5. Briefly: ELISA, coated CEACAM5. Background: ELISA stands for enzyme-linked immunosorbent assay.
The target in experiment [5] is T4, human CXCR4 (on cells, viral lipoparticles or membrane extracts) (human, UniProt P61073 1-352).
T4 construct: whole, on cells; also called hCXCR4 VLPs; CXCR4-lip
T4 sequence (P61073 whole entry): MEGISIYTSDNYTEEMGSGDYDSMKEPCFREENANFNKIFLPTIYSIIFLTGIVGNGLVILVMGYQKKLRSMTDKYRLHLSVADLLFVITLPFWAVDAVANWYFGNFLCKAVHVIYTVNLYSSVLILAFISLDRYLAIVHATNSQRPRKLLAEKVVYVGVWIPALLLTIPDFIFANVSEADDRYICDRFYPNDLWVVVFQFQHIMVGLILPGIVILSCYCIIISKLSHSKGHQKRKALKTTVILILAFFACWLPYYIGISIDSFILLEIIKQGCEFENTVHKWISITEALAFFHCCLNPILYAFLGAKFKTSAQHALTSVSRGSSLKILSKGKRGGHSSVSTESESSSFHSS
Briefly: ELISA on coated hCXCR4 lipoparticles against null lipoparticles at 100, 10, 1 and 0 nM, anti-c-myc detection.

In experiment [6] the target is CXCR4 and CD4 co-expressed on cells (MOLM-13, THP-1, MT-4, PBMC; Jurkat CD4 low) (human, UniProt P61073 1-352; P01730 26-458). Briefly: cell-based or functional assay.
Sequence of CXCR4 and CD4 co-expressed on cells (MOLM-13, THP-1, MT-4, PBMC; Jurkat CD4 low) (P61073 whole entry, chain 1 of 2, other chains not shown): as the sequence (P61073 whole entry) above
Experiment [7] deals with T2, recombinant human CEACAM5. Briefly: ELISA, coated CEACAM5. The source holds these as a separate data set.
Experiment [8] addresses T3, human CEACAM5, cell-expressed. Briefly: FACS, LoVo cells. The source holds these as a separate data set.
The target of experiment [9] is T5, human CD4, cell-expressed (human, UniProt P01730 26-458).
T5 construct: whole, on cells
Briefly: flow cytometry on activated T cells of donor D838 (very high CD4, moderate IL12R), upper right panel.

In experiment [10] the target is T6, human IL12Rβ1 extracellular domain Fc-fusion (human, UniProt P42701 24-545).
T6 construct: extracellular domain; bought; also called IL12Rβ1-Fc; hIL-12Rβ1-Fc; not shown: Fc part, captured by anti-hIgG
Briefly: competition ELISA, coated IL-12 + IL12Rβ1-Fc.

Experiment [11] addresses T7, human IL12Rβ1, cell-expressed (human, UniProt P42701 24-662). Briefly: cell-based or functional assay.
In experiment [12] the target is T6, human IL12Rβ1 extracellular domain …. Briefly: competition ELISA, ratio to monovalent IL12Rb1#30.
Experiment [13] concerns the target T5, human CD4, cell-expressed. Briefly: flow cytometry on MOLM-13 cells (CD4, no IL12R or IL23R), lower left panel.
In experiment [14] the target is T6, human IL12Rβ1 extracellular domain …. Briefly: competition ELISA, coated IL-23 + IL12Rβ1-Fc.
Experiment [15] deals with T7, human IL12Rβ1, cell-expressed. Briefly: cell-based or functional assay. This is another data set of the same source.
For experiment [16], the target named is T6, human IL12Rβ1 extracellular domain …. Briefly: competition ELISA, ratio to monovalent IL12Rb1#30. This is another data set of the same source.
The target is the same in experiment [17]. Briefly: competition ELISA, ratio to monovalent IL12Rb1#31.
For experiment [18] the target is unchanged. Briefly: competition ELISA, ratio to monovalent IL12Rb1#31. This is another data set of the same source.

B1: CEA#5 (VHH)
VHH: EVQLVESGGGSVQAGGSLRLSCAASGDTYGSYWMGWFRQAPGQEREAVAAINRGGGYTVYADSVKGRFTISRDNAKNTLYLQMNSLRPDDTADYYCAASGVLGGLHEDWFNYWGQGTLVTVSS
notes: also called T023200005; NbCEA5(K43Q, G47A, T73N, V78L)
Regarding B1, in experiment [1], the binding result is given as “no binding (tested: about 1E-7 M)”. Further, in [2], the Kd was found to be 3.1 nM, the koff worked out at 0.0033 s⁻¹ and the kon came out at 1.1e+06 M⁻¹ s⁻¹. For the same molecule, the EC50 in experiment [3] was determined as 2.4 nM. The 50% effective concentration (EC50) in experiment [4] stood at 0.11 nM.

B2: CEA#1 (VHH)
VHH: B1 VHH with Q43K, A47G, N74T, L79V
notes: also called NbCEA5
On to B2, for which the binding result in experiment [1] is listed as “no binding (tested: about 1E-7 M)”. In experiment [2], the dissociation constant (Kd) is 0.51 nM, the koff came out at 0.00051 s⁻¹ and the kon turned out to be 990000 M⁻¹ s⁻¹. Moreover, the EC50 in experiment [3] is 1 nM. The EC50 in experiment [4] was determined as 0.026 nM.

B3: 281F12-9GS-03F11 (bispecific antibody)
chain: EVQLVESGGGLVQAGDSLRLSCAASGRAFSRYAMGWFRQAPGKEREFVAAIGWGPSKTNYADSVKGRFTISRDNAKNTVYLQMNTLKPEDTAVYSCAAKFVNTDSTWSRSEMYTYWGQGTQVTVSSGGGSGGGGSEVQLVESGGGSVQPGGSLTLSCGTSGRTFNVMGWFRQAPGKEREFVAAVRWSSTGIYYTQYADSVKSRFTISRDNAKNTVYLEMNSLKPEDTAVYYCAADTYNSNPARWDGYDFRGQGTQVTVSS
notes: also called CXCR4#2-9GS-CD4#8
Regarding B3, the binding result in experiment [5] is listed as “binds”. Besides, in experiment [6], the “IC50, HIV-1 NL4.3 (X4), MT-4” value is 0.2 nM; the “IC50, HIV-1 NL4.3 (X4), PBMC” value was found to be 0.03 nM; the “IC50, HIV-1 NL4.3 (X4), U87” value is 0.53 nM.

B4: CEA#1-35GS-ctrl (bispecific antibody)
chain: EVQLVESGGGSVQAGGSLRLSCAASGDTYGSYWMGWFRQAPGKEREGVAAINRGGGYTVYADSVKGRFTISRDTAKNTVYLQMNSLRPDDTADYYCAASGVLGGLHEDWFNYWGQGTLVTVSSGGGGSGGGGSGGGGSGGGGSGGGGSGGGGSGGGGSDVQLQASGGGSVQAGGSLRLSCAASGYTIGPYCMGWFRQAPGKEREGVAAINMGGGITYYADSVKGRFTISQDNAKNTVYLLMNSLEPEDTAIYYCAADSTIYASYYECGHGLSTGGYGYDSWGQGTQVTVSS
notes: also called BI#48; T023200048
B4: the figures for the EC50 in [7] and in [8] were 0.026 nM and 0.92 nM, respectively.

B5: CEA#5-35GS-ctrl (bispecific antibody)
chain: B4 chain with K43Q, G47A, T74N, V79L
notes: also called BI#51; T023200051
As to B5, the EC50 in [7] is 0.11 nM; in experiment [8], 2.6 nM.

B6: CD4#8-35GS-IL12Rb1#30 (bispecific antibody)
chain: EVQLVESGGGSVQPGGSLTLSCGTSGRTFNVMGWFRQAPGKEREFVAAVRWSSTGIYYTQYADSVKSRFTISRDNAKNTVYLEMNSLKPEDTAVYYCAADTYNSNPARWDGYDFRGQGTLVTVSSGGGGSGGGGSGGGGSGGGGSGGGGSGGGGSGGGGSEVQLVESGGGLVQTGGSLRLSCAASGRTPRLVAMGWFRQTPGKEREFVGEIILSKGFTYYADSVKGRFTISRVNAKNTITMYLQMNSLKSEDTAVYYCAGRQNWSGSPARTNEYEYWGQGTLVTVSS
notes: also called BI#40; T023200040
Regarding B6, in [9], the “EC50 (read off the curve)” value is approximately 1 nM. Also, the IC50 in [10] came out at 7.3 nM. Also, in experiment [11], the “IC50, IFNγ release, PBMC D840” value was determined as 0.36 nM; the “IC50, IFNγ release, T cells D839” value amounted to 0.28 nM; the “fold ctrl, IFNγ release, PBMC D840” value is 47 fold; the “fold ctrl, IFNγ release, T cells D839” value came out at 429 fold. The fold ctrl in experiment [12] stood at 0.5 fold. Moreover, the “EC50 (read off the curve)” value in experiment [13] is approximately 1 nM. For the same molecule, the IC50 in experiment [14] was determined as 3.6 nM. Besides, in [15], the “IC50, IL-17 release, PBMC D840” value is 0.035 nM and the “fold ctrl, IL-17 release” value worked out at 1630 fold. In addition, the fold ctrl in experiment [16] was 0.4 fold.

B7: CD4#8-35GS-IL12Rb1#31 (bispecific antibody)
chain: B6 chain with R190S, L191I, V192I, V233A, G260A, S267N, A269T
notes: also called BI#41; T023200041
As to B7, the “EC50 (read off the curve)” value in [9] is approximately 1 nM. Further, in experiment [10], the IC50 is 28 nM. For the same molecule, in experiment [11], the “IC50, IFNγ release, PBMC D840” value came to 2.2 nM; the “IC50, IFNγ release, T cells D839” value stood at 1.7 nM; the “fold ctrl, IFNγ release, PBMC D840” value is 50 fold. Further, the “EC50 (read off the curve)” value in [13] is approximately 1 nM. For the same molecule, the fold ctrl in experiment [17] stood at 0.8 fold. Further, the IC50 in experiment [14] stood at 15 nM. Besides, in [15], the “IC50, IL-17 release, PBMC D840” value amounted to 0.17 nM and the “fold ctrl, IL-17 release” value was found to be 1710 fold. In experiment [18], the fold ctrl came out at 0.7 fold.

B8: IL12Rb1#30-35GS-CD4#8 (bispecific antibody)
chain: EVQLVESGGGLVQTGGSLRLSCAASGRTPRLVAMGWFRQTPGKEREFVGEIILSKGFTYYADSVKGRFTISRVNAKNTITMYLQMNSLKSEDTAVYYCAGRQNWSGSPARTNEYEYWGQGTLVTVSSGGGGSGGGGSGGGGSGGGGSGGGGSGGGGSGGGGSEVQLVESGGGSVQPGGSLTLSCGTSGRTFNVMGWFRQAPGKEREFVAAVRWSSTGIYYTQYADSVKSRFTISRDNAKNTVYLEMNSLKPEDTAVYYCAADTYNSNPARWDGYDFRGQGTLVTVSS
notes: also called BI#46; T023200046
Consider B8, for which the “EC50 (read off the curve)” value in experiment [9] is approximately 1 nM. Besides, the IC50 in [10] amounted to 6.2 nM. In addition, in experiment [11], the “IC50, IFNγ release, PBMC D840” value was 0.45 nM; the “IC50, IFNγ release, T cells D839” value amounted to 0.29 nM; the “fold ctrl, IFNγ release, PBMC D840” value was 38 fold; the “fold ctrl, IFNγ release, T cells D839” value is 552 fold. Also, the fold ctrl in experiment [12] worked out at 0.6 fold. Besides, the “EC50 (read off the curve)” value in experiment [13] is approximately 1 nM. In addition, the IC50 in [14] worked out at 3 nM. Moreover, in experiment [15], the “IC50, IL-17 release, PBMC D840” value amounted to 0.016 nM and the “fold ctrl, IL-17 release” value turned out to be 875 fold. Also, the fold ctrl in experiment [16] amounted to 0.5 fold.

B9: IL12Rb1#31-35GS-CD4#8 (bispecific antibody)
chain: B8 chain with R30S, L31I, V32I, V73A, G100A, S107N, A109T
notes: also called BI#47; T023200047
Regarding B9, the “EC50 (read off the curve)” value in [9] was approximately 1 nM. Besides, the IC50 in experiment [10] worked out at 24 nM. Also, in experiment [11], the “IC50, IFNγ release, PBMC D840” value turned out to be 1.9 nM; the “IC50, IFNγ release, T cells D839” value was determined as 4.1 nM; the “fold ctrl, IFNγ release, PBMC D840” value amounted to 41 fold. Also, in experiment [13], the concentration for a half-maximal effect (EC50 (read off the curve)) was approximately 1 nM. Besides, the fold ctrl in [17] is 0.9 fold. Moreover, the IC50 in experiment [14] turned out to be 13 nM. Further, in experiment [15], the “IC50, IL-17 release, PBMC D840” value is 0.23 nM and the “fold ctrl, IL-17 release” value was found to be 565 fold. Further, the fold ctrl in [18] turned out to be 0.8 fold.

Values taken from patent US20160251440A1 (Ablynx, published 2016).
